T1: Secreted Protein, Acidic, Rich in Cysteines (SPARC) (UniProt P09486 18-303)
T1 construct: also called osteonectin; SPARC protein
T1 sequence (looked up): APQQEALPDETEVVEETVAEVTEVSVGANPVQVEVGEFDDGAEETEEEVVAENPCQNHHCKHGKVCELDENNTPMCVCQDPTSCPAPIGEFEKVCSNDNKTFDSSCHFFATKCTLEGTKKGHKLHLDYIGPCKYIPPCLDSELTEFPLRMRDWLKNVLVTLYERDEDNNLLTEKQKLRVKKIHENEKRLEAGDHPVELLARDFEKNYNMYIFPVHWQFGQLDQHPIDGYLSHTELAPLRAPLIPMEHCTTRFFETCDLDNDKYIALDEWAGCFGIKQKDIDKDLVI

T2: HTI SPARC (purified platelet SPARC obtained from HTI) (UniProt P09486 18-303)
T2 sequence (looked up): T1 sequence (looked up)

T3: Abx SPARC (SPARC from engineered HEK293 cells produced by Abraxis) (UniProt P09486 18-303, limits assumed)
T3 sequence (looked up): T1 sequence (looked up)

B1: PD 21 (peptide)
peptide: VTPLLKFRALSS
notes: 12-mer from the Ph.D.-12 phage library; The peptide was cloned into pFUSE-hIgG1-Fc2 and expressed as the PD 21-Fc fusion; also called peptide 21; PD 21-Fc
B2: PD 15 (peptide)
peptide: YTRLHHWIPPQR
notes: 12-mer from the Ph.D.-12 phage library; The peptide was cloned into pFUSE-hIgG1-Fc2 and expressed as the PD 15-Fc fusion; also called peptide 15; PD 15-Fc
B3: TTHSELSGYVEL (peptide)
peptide: TTHSELSGYVEL
notes: also called clone 188
B4: AAAPLNLSMTFP (peptide)
peptide: AAAPLNLSMTFP
notes: also called clone 182
B5: TSYLNSGMIPAR (peptide)
peptide: TSYLNSGMIPAR
notes: also called clone 63
B6: IPFATAAYNAPG (peptide)
peptide: IPFATAAYNAPG
notes: also called clone 191
B7: HYFSRTQTLSTL (peptide)
peptide: HYFSRTQTLSTL
notes: also called clone 194
B8: VGNMPFVHPHQW (peptide)
peptide: VGNMPFVHPHQW
notes: also called clone 192
B9: KAYLDSIPITPR (peptide)
peptide: KAYLDSIPITPR
notes: also called clone 60
B10: LSTHKLFHSHSQ (peptide)
peptide: LSTHKLFHSHSQ
notes: also called clone 180
B11: TQWHDDSTFYWL (peptide)
peptide: TQWHDDSTFYWL
notes: also called clone 186
B12: VPATRVSPTPYA (peptide)
peptide: VPATRVSPTPYA
notes: also called clone 133
B13: IDKPLHVVLALG (peptide)
peptide: IDKPLHVVLALG
notes: also called clone 184
B14: QILGYPTNLGPF (peptide)
peptide: QILGYPTNLGPF
notes: also called clone 135
B15: VSHPPRFPGWPQ (peptide)
peptide: VSHPPRFPGWPQ
notes: also called clone 59
B16: SAHTLAAWFAKP (peptide)
peptide: SAHTLAAWFAKP
notes: also called clone 204
B17: ScFv 2-1 (scFv)
scFv: EVQLLESGGGLVQPGGSLRLSCAASGFTFSSYAMSWVRQAPGKGLEWVSMITPLGSTTAYADSVKGRFTISRDNSKNTLYLQMNSLRAEDTAVYYCAKRAGVFDYWGQGTLVTVSSGGGGSGGGGSGGGGSTDIQMTQSPSSLSASVGDRVTITCRASQSISSYLNWYQQKPGKAPKLLIYRASTLQSGVPSRFSGSGSGTDFTLTISSLQPEDFATYYCQQNDSFPTTFGQGTKVEIKR
notes: It was purified from bacteria on a nickel column
B18: ScFv 3-2 (scFv)
scFv: EIVMTQSPGTLSLSPGDRATLSCRASQSVSGYLAWYQQKPGQAPRLLIYDASNRATGIPARFSGSGSGTDFTLTISSLQAEDVAVYYCQQYYSTLPTFGQGTKLEIKRSGGSTITSYNVYYTKLSSSGTQVQLVQSGGGVVQPGRPLKLSCAASGFTFSSYAMHWVRQAPGKGLEWVAVISYDGSNKYYADSVKGRFTISRDNSKNTLYLQMNSLRAEDTAVYYCARDLSWNDAFDIWGQGTMVTVSSAS
B19: AHPWRYTEPWSW (peptide)
peptide: AHPWRYTEPWSW
notes: also called clone 101; clone 154

Biological target: T1, Secreted Protein, Acidic, Rich in …
Assay: concentration-dependent binding ELISA

Point of comparison: B1, Kd 100 nM. Against it:
- B2 — 2.4-fold lower, 41 nM

Biological target: T1, Secreted Protein, Acidic, Rich in …
Assay: concentration-dependent ELISA on SPARC

Point of comparison: B1, “EC50 (read off the curve)” value ~3 µg/mL. Against it:
- B2 — 1.5-fold lower, ~2 µg/mL

Point of comparison: B1, Kd 1 nM. Against it:
- B2 — 410-fold higher, 410 nM

Biological target: T1, Secreted Protein, Acidic, Rich in …
Assay: phage ELISA on SPARC-coated wells; OD column 1 of 3
Excerpt: (§1) Accordingly, a commercial peptide phage display library (12-mer peptides in M13) was screened for peptides which bind to SPARC. The target, SPARC is an acidic glycoprotein with a PI of 4.6. By immobilization on 96-wells plates with pH 9.6 coating buffer, Ph.D.-12 peptide library was screened four rounds to select peptide binders using phage display technology. Specifically, bound phages were eluted with an acidic eluting solution in the 1st round of screening. Then the screening stringency was enhanced gradually by decreasing the target protein concentration and increasing the percentage of Tween-20 in washing buffer. At the same time, competitive elution with excess target was adopted to improve the screening specificity. Finally, after four rounds of screening, ssDNA of selected clones were subjected to DNA sequencing. At the same time, the binding of the positive phages to the target protein was validated using phage ELISA.

Point of comparison: B12, OD 0.545. Against it:
- B3 — higher, 0.716
- B4 — higher, 0.756
- B5 — higher, 0.688
- B6 — higher, 0.564
- B7 — lower, 0.494
- B8 — higher, 0.567
- B1 — lower, 0.45
- B9 — higher, 0.619
- B10 — higher, 1.21
- B11 — higher, 0.903
- B13 — higher, 0.634
- B14 — higher, 0.626
- B15 — higher, 0.737
- B16 — higher, 0.8
- B2 — higher, 0.597

Biological target: T1, Secreted Protein, Acidic, Rich in …
Assay: phage ELISA on SPARC-coated wells; OD column 2 of 3
Excerpt: as §1

Point of comparison: B7, OD 0.514. Against it:
- B3 — higher, 0.682
- B4 — higher, 0.782
- B5 — higher, 0.664
- B6 — higher, 0.567
- B8 — lower, 0.5
- B1 — lower, 0.443
- B9 — higher, 0.611
- B10 — higher, 1.28
- B11 — higher, 0.985
- B12 — higher, 0.554
- B13 — higher, 0.635
- B14 — higher, 0.652
- B15 — higher, 0.628
- B16 — higher, 0.748
- B2 — higher, 0.516

Biological target: T1, Secreted Protein, Acidic, Rich in …
Assay: phage ELISA on SPARC-coated wells; OD column 3 of 3
Excerpt: as §1

Point of comparison: B3, OD 0.685. Against it:
- B4 — lower, 0.643
- B5 — lower, 0.602
- B6 — lower, 0.58
- B7 — lower, 0.521
- B8 — lower, 0.539
- B1 — lower, 0.438
- B9 — lower, 0.605
- B10 — higher, 1.14
- B11 — higher, 0.882
- B12 — lower, 0.5
- B13 — lower, 0.554
- B14 — lower, 0.66
- B15 — higher, 0.733
- B16 — higher, 0.779
- B2 — lower, 0.576

Biological target: T2, HTI SPARC (purified platelet SPARC …)
Assay: Biacore, SPARC immobilised on the chip; S = soluble scFv

For B17, the Kd was 330 nM.

Biological target: T3, Abx SPARC (SPARC from engineered HEK293 …)
Assay: as above

B17 showed a Kd of 370 nM.

Biological target: T2, HTI SPARC (purified platelet SPARC …)
Assay: Biacore, SPARC immobilised on the chip; R = refolded scFv

Work on B18 yielded a Kd of 78000 nM.

Biological target: T3, Abx SPARC (SPARC from engineered HEK293 …)
Assay: as above

In the case of B18, the Kd is reported as 1300 nM.

Biological target: Secreted Protein, Acidic, Rich in Cysteines (SPARC) (UniProt P09486)
Assay: phage display panning on immobilised SPARC; times isolated among 134 sequenced clones

For HLPKSLS (peptide), the Count was 1.

Biological target: T1, Secreted Protein, Acidic, Rich in …
Assay: as above
Excerpt: as §1

Point of comparison: B9, Count 1. Against it:
- B3 — the same, 1
- B4 — the same, 1
- B5 — the same, 1
- B19 — higher, 6
- B6 — the same, 1
- B7 — the same, 1
- B8 — the same, 1
- B1 — higher, 2
- B10 — the same, 1
- B11 — higher, 2
- B12 — the same, 1
- B13 — higher, 2
- B14 — the same, 1
- B15 — the same, 1
- B16 — the same, 1
- B2 — the same, 1
